Assays:
[1] = target: AAV2 virion expressing GFP (AAV2-CMV-GFP) (AAV2) (UniProt P03135); experiment: cell-based or functional assay
[2] = target: AAV2.5T.LSV1 virion expressing GFP (AAV2.5T.LSV1-CMV-GFP); experiment: cell-based or functional assay

Substance: pooled human IgG antibodies (Gammagard IVIG)
- IC50 of inhibition of GFP expression in transduced 293T cells (reciprocal dilution of the pooled human IgG antibody sample at which GFP expression is reduced by 50%) (reciprocal dilution) [1]: 104
- IC50 of inhibition of GFP expression in transduced 293T cells (reciprocal dilution of the pooled human IgG antibody sample at which GFP expression is reduced by 50%) (reciprocal dilution) [2]: 9.3

Source: patent publication US20200338146A1
